Reference: patent EP4606382A1 (Fundació Centre de Regulació Genòmica, dated 2025)

Target: T1, NanoLuc-cTAGE5-CC2 (predicted binding region of cTAGE5 coiled-coil 2 with a Nanoluciferase tag at the …)
T1 construct: The fusion construct was expressed inside live HEK293T cells; also called C5-CC2; c5-CC2
T1 chain: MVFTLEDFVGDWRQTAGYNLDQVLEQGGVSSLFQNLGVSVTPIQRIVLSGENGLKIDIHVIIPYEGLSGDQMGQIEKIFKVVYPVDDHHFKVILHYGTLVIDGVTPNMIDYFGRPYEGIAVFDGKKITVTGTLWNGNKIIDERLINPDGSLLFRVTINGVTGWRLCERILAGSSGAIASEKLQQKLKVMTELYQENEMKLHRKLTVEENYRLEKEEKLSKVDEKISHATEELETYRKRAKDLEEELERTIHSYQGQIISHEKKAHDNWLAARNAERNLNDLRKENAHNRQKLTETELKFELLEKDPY
Experiment: NanoBRET in live HEK293T cells (HaloTag 618 acceptor, NanoLuc donor)

binding result: binds
B1: Halo-T1-CC2 (portion of the coiled-coil region CC2 of TANGO1 with an N-terminal fusion of HaloTag) (other)
chain: MAEIGTGFPFDPHYVEVLGERMHYVDVGPRDGTPVLFLHGNPTSSYVWRNIIPHVAPTHRCIAPDLIGMGKSDKPDLGYFFDDHVRFMDAFIEALGLEEVVLVIHDWGSALGFHWAKRNPERVKGIAFMEFIRPIPTWDEWPEFARETFQAFRTTDVGRKLIIDQNVFIEGTLPMGVVRPLTEVEMDHYREPFLNPVDREPLWRFPNELPIAGEPANIVALVEEYMDWLHQSPVPKLLFWGTPGVLIPPAEAARLAKSLPNCKAVDIGPGLNLLQEDNPDLIGSEIARWLSTLEISGEPTTEDLYFQSDNAIASELRQKVEILNELYQQKEMALQKKLSQEEYERQEREHRLSAADEKAVSAAEEVKTYKRRIEEMEDELQKTERSFKNQIATHEKKAHENWLKARAAERAIAEEKREAANLRHKLLELTQKMAMLQEEP
modifications: HaloTag labeled with the HaloTag 618 fluorescent ligand
notes: The fusion construct was expressed inside live HEK293T cells; also called Halo-TANGO1-CC2; TANGO1-CC2
